Where a chain is given by its changes, count along the chain named.
T1: recombinant human MCP-2 (human, UniProt P80075 24-99)
T1 construct: also called rhMCP-2
T1 sequence (looked up): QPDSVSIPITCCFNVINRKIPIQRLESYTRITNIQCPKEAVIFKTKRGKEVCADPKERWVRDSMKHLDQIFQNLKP

T2: human GRO/MGSA (human, UniProt P09341 35-107)
T2 construct: also called hGRO/MGSA; GRO-alpha
T2 sequence (looked up): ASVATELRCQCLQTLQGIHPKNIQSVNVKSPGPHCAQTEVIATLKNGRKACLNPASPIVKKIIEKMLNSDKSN

T3: human MIP-1-alpha (human, UniProt P10147 24-92, limits assumed)
T3 construct: also called hMIP-1-alpha
T3 sequence (looked up): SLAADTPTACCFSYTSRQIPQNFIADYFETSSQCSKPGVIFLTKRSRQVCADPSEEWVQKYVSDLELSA

T4: human RANTES (human, UniProt P13501 24-91)
T4 construct: also called hRANTES
T4 sequence (looked up): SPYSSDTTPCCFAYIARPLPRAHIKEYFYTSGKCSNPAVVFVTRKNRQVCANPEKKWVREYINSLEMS

B1: anti-MCP-1 mAb 1.9.1 (antibody, V domains shown)
VH: QVQLVQSGAEVKKPGASVKVSCKVSGYTLTELSMHWVRQAPGKGLEWMGGFDPEDGETINAQKFQGRVTMTEDTSTDTGYMELSSLRSEDTAVYYCATDPGGYSGYFDHWGQGTLVTVSS
VL: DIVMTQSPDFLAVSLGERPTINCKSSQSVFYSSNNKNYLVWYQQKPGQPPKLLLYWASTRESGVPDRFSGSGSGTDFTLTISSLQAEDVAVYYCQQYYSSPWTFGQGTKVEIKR
B2: anti-MCP-1 mAb 1.7.1 (antibody, human IgG2, kappa, V domains shown)
VH: QVQLVQSGAEVKKPGASVKVSCKVSGYTLTELSMHWVRQAPGKGLEWMGGFDPEDGETIYAQKFQGRVSMTEDTSTDTAYMELSSLRSEDTAVYFCATNEFWSGYFDYWGQGTLVTVSS
VL: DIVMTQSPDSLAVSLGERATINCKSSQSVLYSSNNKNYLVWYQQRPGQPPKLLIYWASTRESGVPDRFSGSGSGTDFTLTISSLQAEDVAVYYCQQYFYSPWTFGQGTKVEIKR
notes: also called 1.7.2
B3: anti-MCP-1 mAb 3.5.1 (antibody, V domains shown)
VH: B2 VH with T30S, G56D, S69T, Y80F, F95Y, N99H, E100D, D107H
VL: DIVMTQSPDSLAVSLGERATINCKSSQSVLYSSDNKSYLVWYQQKPGQPPKVLIYWASIRESGVPDRFSGSGSGTDFTLTISSLQAEDVAVYYCQQYYTSPWTFGQGTKVEIKR
B4: anti-MCP-1 mAb 3.6.1 (antibody, V domains shown)
VH: B2 VH with S69T, F95Y, T98I, N99H
VL: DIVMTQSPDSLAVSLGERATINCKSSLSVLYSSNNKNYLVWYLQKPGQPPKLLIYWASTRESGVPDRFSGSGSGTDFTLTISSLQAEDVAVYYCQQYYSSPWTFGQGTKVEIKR
B5: anti-MCP-1 mAb 2.3.1 (antibody, V domains shown)
VH: B2 VH with G56D, S69T, D77H, F95Y, N99H, E100D, G104A, D107Y
VL: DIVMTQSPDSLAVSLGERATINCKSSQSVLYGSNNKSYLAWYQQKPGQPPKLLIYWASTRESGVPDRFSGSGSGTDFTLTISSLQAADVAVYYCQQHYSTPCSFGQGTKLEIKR
B6: anti-MCP-1 mAb 3.7.1 (antibody, human IgG2, kappa, V domains shown)
VH: B2 VH with A40T, G66D, S69T, F95Y, E100D, S103T, F106Y
VL: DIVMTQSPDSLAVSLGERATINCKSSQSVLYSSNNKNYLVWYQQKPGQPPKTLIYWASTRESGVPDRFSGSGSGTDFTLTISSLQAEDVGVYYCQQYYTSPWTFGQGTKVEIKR
notes: also called 3.7.2
B7: anti-MCP-1 mAb 2.4.1 (antibody, V domains shown)
VH: QVQLVQSGAEVKKPGASVKVSCKASGYTFTGYYLHWVRQAPGQGLEWMGWINPYNDGTNYAQKFQGRVTMTRDTSISTAYMELSRLRSDDTAVYYCARDIAAAGAVYFDYWGQGTLVTVSS
VL: DIQMTQSPSSLSASVGDRVTITCQASQDITTYLNWYQQKPGKAPKLLIYDASNLETGVPSRFSGSGSGTDFTFTISSLQPEDIATYYCQQYDNLPITFGQGTRLEIKR

Molecular target: T5, recombinant mouse JE/MCP-1 (mouse, UniProt P10148 24-148)
T5 construct: also called rmJE/MCP-1
Assay: ELISA, coated antigen
Outline: (§1)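 Plates coated overnight at 4° C with MCP-1, MCP-2, MCP-3, MCP-4, RANTES, GRO-alpha, MIP-1 alpha, eotaxin, rat MCP-1 or mouse JE (2 μg/ml, carbonate buffer pH 9.6), blocked with BSA. Hybridoma supernatants bound 2 hours at room temperature; TMB colour developed about 10 minutes.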

| ELISA OD | Binder |
| --- | --- |
| 0.053 OD450 | B1 |
| 0.041 OD450 | B2 |
| 0.042 OD450 | B3 |
| 0.047 OD450 | B4 |
| 0.054 OD450 | B5 |
| 0.046 OD450 | B6 |
| 0.129 OD450 | B7 |

Molecular target: rat MCP-1 (rat, UniProt P14844 24-148)
Assay: ELISA, coated antigen
Outline: as §1

Sequence of rat MCP-1 (P14844 24-148 limits assumed): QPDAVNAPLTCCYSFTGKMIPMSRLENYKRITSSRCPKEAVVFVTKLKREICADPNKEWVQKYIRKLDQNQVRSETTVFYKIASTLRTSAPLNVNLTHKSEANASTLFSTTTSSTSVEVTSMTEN

| ELISA OD | Binder |
| --- | --- |
| 0.065 OD450 | B1 |
| 0.042 OD450 | B2 |
| 0.053 OD450 | B3 |
| 0.046 OD450 | B4 |
| 0.058 OD450 | B5 |
| 0.048 OD450 | B6 |
| 0.077 OD450 | B7 |

Molecular target: T1, recombinant human MCP-2
Assay: ELISA, coated antigen
Outline: as §1

| ELISA OD | Binder |
| --- | --- |
| 0.04 OD450 | B1 |
| 0.044 OD450 | B2 |
| 0.042 OD450 | B3 |
| 0.052 OD450 | B4 |
| 0.052 OD450 | B5 |
| 0.043 OD450 | B6 |
| 0.045 OD450 | B7 |

Molecular target: T6, recombinant human MCP-3 (human, UniProt P80098 24-99)
T6 construct: also called rhMCP-3
Assay: ELISA, coated antigen
Outline: as §1

T6 sequence (P80098 24-99 limits assumed): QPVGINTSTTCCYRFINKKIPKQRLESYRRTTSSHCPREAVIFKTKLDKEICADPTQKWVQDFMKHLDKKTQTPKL

| ELISA OD | Binder |
| --- | --- |
| 0.044 OD450 | B1 |
| 0.053 OD450 | B2 |
| 0.045 OD450 | B3 |
| 0.045 OD450 | B4 |
| 0.059 OD450 | B5 |
| 0.048 OD450 | B6 |
| 0.066 OD450 | B7 |

Molecular target: T7, recombinant human MCP-4 (human, UniProt Q99616 24-98, limits assumed)
T7 construct: also called rhMCP-4
Assay: ELISA, coated antigen
Outline: as §1

| ELISA OD | Binder |
| --- | --- |
| 0.042 OD450 | B1 |
| 0.041 OD450 | B2 |
| 0.044 OD450 | B3 |
| 0.048 OD450 | B4 |
| 0.064 OD450 | B5 |
| 0.048 OD450 | B6 |
| 0.06 OD450 | B7 |

Molecular target: T2, human GRO/MGSA
Assay: ELISA, coated antigen
Outline: as §1

| ELISA OD | Binder |
| --- | --- |
| 0.043 OD450 | B1 |
| 0.041 OD450 | B2 |
| 0.048 OD450 | B3 |
| 0.047 OD450 | B4 |
| 0.062 OD450 | B5 |
| 0.045 OD450 | B6 |
| 0.048 OD450 | B7 |

Molecular target: T3, human MIP-1-alpha
Assay: ELISA, coated antigen
Outline: as §1

| ELISA OD | Binder |
| --- | --- |
| 0.044 OD450 | B1 |
| 0.04 OD450 | B2 |
| 0.047 OD450 | B3 |
| 0.047 OD450 | B4 |
| 0.067 OD450 | B5 |
| 0.049 OD450 | B6 |
| 0.061 OD450 | B7 |

Molecular target: T4, human RANTES
Assay: ELISA, coated antigen
Outline: as §1

| ELISA OD | Binder |
| --- | --- |
| 0.042 OD450 | B1 |
| 0.039 OD450 | B2 |
| 0.044 OD450 | B3 |
| 0.043 OD450 | B4 |
| 0.055 OD450 | B5 |
| 0.067 OD450 | B6 |
| 0.046 OD450 | B7 |

Molecular target: T8, human eotaxin (human, UniProt P51671 24-97)
T8 construct: also called hEotaxin
Assay: ELISA, coated antigen
Outline: as §1

| ELISA OD | Binder |
| --- | --- |
| 0.042 OD450 | B1 |
| 0.04 OD450 | B2 |
| 0.043 OD450 | B3 |
| 0.043 OD450 | B4 |
| 0.045 OD450 | B5 |
| 0.043 OD450 | B6 |
| 0.084 OD450 | B7 |

Molecular target: T9, human monocyte chemo-attractant protein-1 (MCP-1) (human, UniProt P13500 24-99)
Assay: cell-based or functional assay

T9 sequence (P13500 24-99): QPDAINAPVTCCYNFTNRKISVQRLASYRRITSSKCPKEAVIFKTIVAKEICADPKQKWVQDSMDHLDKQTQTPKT

| IC50 Ca++ Flux | IC50 Chemotaxis | Binder |
| --- | --- | --- |
| 1.2 µg/mL | 35 µg/mL | B1 |
| 0.11 µg/mL | 0.35 µg/mL | B2 |
| 0.58 µg/mL | 3.1 µg/mL | B3 |
| 0.17 µg/mL | 0.52 µg/mL | B4 |
| 0.14 µg/mL | 0.58 µg/mL | B5 |
| 0.094 µg/mL | 0.98 µg/mL | B6 |
| 0.26 µg/mL | > 5 µg/mL | B7 |

Molecular target: T9, human monocyte chemo-attractant …
Assay: Biacore, mAb immobilized, MCP-1 injected; Biacore, 25 C, native MCP-1 injected over immobilized mAb
Description: Determination of anti-MCP-1 antibody affinity using Biacore analysis. The antibody/MCP-1 interaction analysis was performed at 25° C. using two CM5 chips docked in Biacore 3000 optical biosensors. Individual flow cells on each chip were activated with a 7-minute injection of NHS/EDC, carbohydrazide was coupled through the NHS ester using a 7-minute injection, and the residual activated groups were blocked with a 7-minute injection of ethanolamine. The monosaccharide residues of each antibody were oxidized using 1 mM sodium metaperiodate in 100 mM sodium acetate, pH 5.5 at 4° C. for 30 minutes. The oxidized antibody was desalted into 100 mM sodium acetate, pH 5.0, to couple the antibody to the carbohydrazide-modified surface. The mAb surfaces were stabilized by reducing the hydrazone bond with 0.1 M sodium cyanoborohydride. The antigen/antibody interaction was tested by injecting 0, 0.049, 0.15, 0.4, 1.3, 4 and 12 nM of MCP-1 (Peprotech, N.J.) in running buffer (10 mM HEPES, 150 mM NaCl, 0.005% surfactant, 200 μg/ml BSA, pH 7.4). The surfaces were regenerated with a 12-second pulse of 15 mM H₃PO₄. The antigen/antibody interaction was tested by injecting duplicate antigen samples diluted in running buffer (10 mM HEPES, […], 0.005% surfactant, 200 μg/mL BSA, pH 7.4), in a 300-fold concentration range. The surfaces were regenerated with a 12-second pulse of 15 mM H₃PO₄. To determine the kinetics of each interaction, the data sets were fit globally to a 1:1 interaction model that included a parameter for mass transport.

| Kd | Binder |
| --- | --- |
| 0.096 nM | B1 |
| 0.0049 nM | B2 |
| 0.1 nM | B3 |
| 0.015 nM | B4 |
| 0.096 nM | B5 |
| 0.0048 nM | B6 |
| 0.014 nM | B7 |

Molecular target: T9, human monocyte chemo-attractant …
Assay: ELISA, coated antigen; ELISA, purified clone 1:50 on coated hMCP-1 (2 ug/mL), cross-reactivity panel
Description: Determining cross-reactivity of anti-MCP-1 antibodies with other chemokines. ELISA plates (Fisher Cat. No. 12-565-136) were coated with 50 μl/well of MCP-1, MCP-2, MCP-3, MCP-4, RANTES, GRO-alpha, MIP-1 alpha, eotaxin, rat MCP-1 and mouse JE (2 μg/ml) in coating buffer (0.1 M carbonate buffer, pH 9.6, NaHCO₃ 8.4 g/L, then incubated at 4° C. overnight. After incubation, the plates were washed with washing buffer (0.05% Tween 20 in PBS) three times. 200 μL/well blocking buffer (0.5% BSA, 0.1% Tween 20, 0.01% Thimerosal in 1×PBS) were added and the plates incubated at room temperature for 1 hour. After incubation, the plates were washed with washing buffer three times. 50 μL/well of hybridoma supernatants, and positive and negative controls (positive control was anti-MCP-1 antibody purchased from R&D Sciences, and negative control was an antibody to Keyhole Limpet Hemocyanin produced at Abgenix) were added and the plates incubated at room temperature for 2 hours. After incubation, the plates were washed three times with washing buffer. […] After incubation, the plates were washed three times with washing buffer and 100 μL/well of TMB (BioFX Lab. Cat. #TMSK-0 100-01) was added and the plates allowed to develop for about 10 minutes.

| ELISA OD | Binder |
| --- | --- |
| 0.446 OD450 | B1 |
| 1.17 OD450 | B2 |
| 0.194 OD450 | B3 |
| 0.342 OD450 | B4 |
| 1.28 OD450 | B6 |
| 0.462 OD450 | B7 |

Molecular target: T9, human monocyte chemo-attractant …
Assay: ELISA, hybridoma supernatant on coated MCP-1; ELISA, hybridoma supernatant on plate-coated non-reduced MCP-1 (2 ug/mL)
Description: Selection of candidate antibodies for ELISA. After 14 days of culture, hybridoma supernatants were screened for MCP-1-specific monoclonal antibodies. The ELISA plates (Fisher, Cat. No. 12-565-136) were coated with 50 μl/well of MCP-1 (2 μg/mL) in Coating Buffer (0.1 M Carbonate Buffer, pH 9.6, NaHCO₃8.4 g/L), then incubated at 4° C. overnight. After incubation, the plates were washed with Washing Buffer (0.05% Tween 20 in PBS) three times. 200 μl/well Blocking Buffer (0.5% BSA, 0.1% Tween 20, 0.01% Thimerosal in 1× PBS) were added and the plates incubated at room temperature for 1 hour. After incubation, the plates were washed with Washing Buffer three times. 50 μL/well of hybridoma supernatants, and positive and negative controls were added and the plates incubated at room temperature for 2 hours.
The positive control used throughout was XMG2 MCP-1 Group 1, footpad N160-7 and the negative control was XMG2 KLH Group 1, footpad L627-6. After incubation, the plates were washed three times with Washing Buffer. […] In the secondary screen, three sets of samples (positives in first screening) were screened, one set for hIgG detection, one set for hKappa detection, and one set for hlambda detection. After incubation, the plates were washed three times with Washing Buffer. 100 μL/well of TMB (BioFX Lab. Cat. #TMSK-0100-01) were added and the plates allowed to develop for about 10 minutes (until negative control wells barely started to show color), then 50 μL/well stop solution (TMB Stop Solution (BioFX Lab. Cat. #STPR-0100-01) were added and the plates read on an ELISA plate reader at wavelength 450 nm. The OD readings from the positive wells are presented in Table 9.

| ELISA OD-MCP-1 | Binder |
| --- | --- |
| 3.66 OD450 | B1 |
| 3.52 OD450 | B2 |
| 3.77 OD450 | B3 |
| 3.59 OD450 | B4 |
| 3.88 OD450 | B5 |
| 4 OD450 | B6 |
| 3.89 OD450 | B7 |

Reference: patent publication US20050058639A1 (AstraZeneca / MedImmune, published 2005)
